Measurements: paper PMC9687537

B1: GFP–WDR34-WT [human] / WDR60 [human (endogenous in RPE1)] (parent)
chain 1: MATRAQPGPLSQAGSAGVAALATVGVASGPGPGRPGPLQDETLGVASVPSQWRAVQGIRWETKSCQTASIATASASAQARNHVDAQVQTEAPVPVSVQPPSQYDIPRLAAFLRRVEAMVIRELNKNWQSHAFDGFEVNWTEQQQMVSCLYTLGYPPAQAQGLHVTSISWNSTGSVVACAYGRLDHGDWSTLKSFVCAWNLDRRDLRPQQPSAVVEVPSAVLCLAFHPTQPSHVAGGLYSGEVLVWDLSRLEDPLLWRTGLTDDTHTDPVSQVVWLPEPGHSHRFQVLSVATDGKVLLWQGIGVGQLQLTEGFALVMQQLPRSTKLKKHPRGETEVGATAVAFSSFDPRLFILGTEGGFPLKCSLAAGEAALTRMPSSVPLRAPAQFTFSPHGGPIYSVSCSPFHRNLFLSAGTDGHVHLYSMLQAPPLTSLQLSLKYLFAVRWSPVRPLVFAAASGKGDVQLFDLQKSSQKPTVLIKQTQDESPVYCLEFNSQQTQLLAAGDAQGTVKVWQLSTEFTEQGPREAEDLDCLAAEVAA
chain 2: MEPGKRRTKDDTWKADDLRKHLWAIQSGGSKEERKHREKKLRKESEMDLPEHKEPRCRDPDQDARSRDRVAEVHTAKESPRGERDRDRQRERRRDAKDREKEKLKEKHREAEKSHSRGKDREKEKDRRARKEELRQTVAHHNLLGQETRDRQLLERAERKGRSVSKVRSEEKDEDSERGDEDRERRYRERKLQYGDSKDNPLKYWLYKEEGERRHRKPREPDRDNKHREKSSTREKREKYSKEKSNSFSDKGEERHKEKRHKEGFHFDDERHQSNVDRKEKSAKDEPRKRESQNGEHRNRGASSKRDGTSSQHAENLVRNHGKDKDSRRKHGHEEGSSVWWKLDQRPGGEETVEIEKEETDLENARADAYTASCEDDFEDYEDDFEVCDGDDDESSNEPESREKLEELPLAQKKEIQEIQRAINAENERIGELSLKLFQKRGRTEFEKEPRTDTNSSPSRASVCGIFVDFASASHRQKSRTQALKQKMRSTKLLRLIDLDFSFTFSLLDLPPVNEYDMYIRNFGKKNTKQAYVQCNEDNVERDIQTEEIETREVWTQHPGESTVVSGGSEQRDTSDAVVMPKIDTPRLCSFLRAACQVMAVLLEEDRLAAEPSWNLRAQDRALYFSDSSSQLNTSLPFLQNRKVSSLHTSRVQRQMVVSVHDLPEKSFVPLLDSKYVLCVWDIWQPSGPQKVLICESQVTCCCLSPLKAFLLFAGTAHGSVVVWDLREDSRLHYSVTLSDGFWTFRTATFSTDGILTSVNHRSPLQAVEPISTSVHKKQSFVLSPFSTQEEMSGLSFHIASLDESGVLNVWVVVELPKADIAGSISDLGLMPGGRVKLVHSALIQLGDSLSHKGNEFWGTTQTLNVKFLPSDPNHFIIGTDMGLISHGTRQDLRVAPKLFKPQQHGIRPVKVNVIDFSPFGEPIFLAGCSDGSIRLHQLSSAFPLLQWDSSTDSHAVTGLQWSPTRPAVFLVQDDTSNIYIWDLLQSDLGPVAKQQVSPNRLVAMAAVGEPEKAGGSFLALVLARASGSIDIQHLKRRWAAPEVDECNRLRLLLQEALWPEGKLHK
B2: GFP–WDR34-WT [human] / DYNLL2 [human (endogenous in RPE1)] (parent)
chain 1: B1 chain 1
chain 2: not shown
B3: GFP–WDR34-WT [human] / LIC3 [human (endogenous in RPE1)] (parent)
chain 1: B1 chain 1
chain 2: MPSETLWEIAKAEVEKRGINGSEGDGAEIAEKFVFFIGSKNGGKTTIILRCLDRDEPPKPTLALEYTYGRRAKGHNTPKDIAHFWELGGGTSLLDLISIPITGDTLRTFSLVLVLDLSKPNDLWPTMENLLQATKSHVDKVIMKLGKTNAKAVSEMRQKIWNNMPKDHPDHELIDPFPVPLVIIGSKYDVFQDFESEKRKVICKTLRFVAHYYGASLMFTSKSEALLLKIRGVINQLAFGIDKSKSICVDQNKPLFITAGLDSFGQIGSPPVPENDIGKLHAHSPMELWKKVYEKLFPPKSINTLKDIKDPARDPQYAENEVDEMRIQKDLELEQYKRSSSKSWKQIELDS

Variants of: B1
Assay: GFP-trap purification, TMT-labelling and mass spectrometry
Settings: with WDR60 [human (endogenous in RPE1)]; RPE1 WDR34 KO cell lines expressing GFP proteins, serum-starved for 24 h; read off a plot

Variant | ratio to parent
chain 1 MATRAQPGPLSQAGSAGVAALATVGVASGPGPGRPGPLQDETLGVASVPSQWRAVQGIRWETKSCQTASIATASASAQARNHVDAQVQTEAPVPVSVQPPSQYDIPRLAAFLRRVEAMVIRELNKNWQSHAFDGFEVNWTEQQQMVSCLYTLGYPPAQAQGLHVTSISWNSTGSVVACAYGRLDHGDWSTLKSFVCAWNLDRRDLRPQQPSAVVEVPSAVLCLAFHPTQPSHVAGGLYSGEVLVWDLSRLEDPLLWRTGLTDDTHTDPVSQVVWLPEPGHSHRFQVLSVATDGKVLLWQGIGVGQLQLTEGFALVMQQLPRSTKLKKHPRGETEVGATAVAFSSFDPRLFILGTEGGFPLKCSLAAGEAALTRMPSSVPLRAPAQFTFSPHGGPIYSVSCSPFHRNLFLSAGTDGHVHLYSMLQAPPLTSLQLSLRYLFAVRWSPVRPLVFAAASGKGDVQLFDLQKSSQKPTVLIKQTQDESPVYCLEFNSQQTQLLAAGDAQGTVKVWQLSTEFTEQGPREAEDLDCLAAEVAA [chain 1 K436R] | 1.4
chain 1 MATRAQPGPLSQAGSAGVAALATVGVASGPGPGRPGPLQDETLGVASVPSQWRAVQGIRWETKSCQTASIATASASAQARNHVDAQVQTEAPVPVSVQPPSQYDIPRLAAFLRRVEAMVIRELNKNWQSHAFDGFEVNWTEQQQMVSCLYTLGYPPAQAQGLHVTSISWNSTGSVVACAYGRLDHGDWSTLKSFVCAWNLDRRDLRPQQPSAVVEVPSAVLCLAFHPTQPSHVAGGLYSGEVLVWDLSRLEDPLLWRTGLTDDTHTDPVSQVVWLPEPGHSHRFQVLSVATDGKVLLWQGIGVGQLQLTEGFALVMQQLPRSTKLKKHPRGETEVGATAVVFSSFDPRLFILGTEGGFPLKCSLAAGEAALTRMPSSVPLRAPAQFTFSPHGGPIYSVSCSPFHRNLFLSAGTDGHVHLYSMLQAPPLTSLQLSLKYLFAVRWSPVRPLVFAAASGKGDVQLFDLQKSSQKPTVLIKQTQDESPVYCLEFNSQQTQLLAAGDAQGTVKVWQLSTEFTEQGPREAEDLDCLAAEVAA [chain 1 A341V] | 1.3
chain 1 MATRAQPGPLSQAGSAGVAALATVGVASGPGPGRPGPLQDETLGVASVPSQWRAVQGIRWETKSCQTASIATASASAQARNHVDAQVQTEAPVPVSVQPPSQYDIPRLAAFLRRVEAMVIRELNKNWQSHAFDGFEVNWTEQQQMVSCLYTLGYPPAQAQGLHVTSISWNSTGSVVACAYGRLDHGDWSTLKSFVCAWNLDRRDLCPQQPSAVVEVPSAVLCLAFHPTQPSHVAGGLYSGEVLVWDLSRLEDPLLWRTGLTDDTHTDPVSQVVWLPEPGHSHRFQVLSVATDGKVLLWQGIGVGQLQLTEGFALVMQQLPRSTKLKKHPRGETEVGATAVAFSSFDPRLFILGTEGGFPLKCSLAAGEAALTRMPSSVPLRAPAQFTFSPHGGPIYSVSCSPFHRNLFLSAGTDGHVHLYSMLQAPPLTSLQLSLKYLFAVRWSPVRPLVFAAASGKGDVQLFDLQKSSQKPTVLIKQTQDESPVYCLEFNSQQTQLLAAGDAQGTVKVWQLSTEFTEQGPREAEDLDCLAAEVAA [chain 1 R206C] | 1.5
chain 1 MATRAQPGPLSQAGSAGVAALATVGVASGPGPGRPGPLQDETLGVASVPSQWRAVQGIRWETKSCQTASIATASASAQARNHVDAQVQTEAPVPVSVQPPSQYDIPRLAAFLRRVEAMVIRELNKNWQSHAFDGFEVNWTEQQQMVSCLYTLGYPPAQAQGLHVTSISWNSTGSVVACAYGWLDHGDWSTLKSFVCAWNLDRRDLRPQQPSAVVEVPSAVLCLAFHPTQPSHVAGGLYSGEVLVWDLSRLEDPLLWRTGLTDDTHTDPVSQVVWLPEPGHSHRFQVLSVATDGKVLLWQGIGVGQLQLTEGFALVMQQLPRSTKLKKHPRGETEVGATAVAFSSFDPRLFILGTEGGFPLKCSLAAGEAALTRMPSSVPLRAPAQFTFSPHGGPIYSVSCSPFHRNLFLSAGTDGHVHLYSMLQAPPLTSLQLSLKYLFAVRWSPVRPLVFAAASGKGDVQLFDLQKSSQKPTVLIKQTQDESPVYCLEFNSQQTQLLAAGDAQGTVKVWQLSTEFTEQGPREAEDLDCLAAEVAA [chain 1 R182W] | 1.7

Variants of: B2
Assay: as above
Settings: with DYNLL2 [human (endogenous in RPE1)]; RPE1 WDR34 KO cell lines expressing GFP proteins, serum-starved for 24 h; read off a plot

Variant | ratio to parent
chain 1 T354M | 1.5

Variants of: B3
Assay: as above
Settings: with LIC3 [human (endogenous in RPE1)]; RPE1 WDR34 KO cell lines expressing GFP proteins, serum-starved for 24 h; read off a plot

Variant | ratio to parent
chain 1 MATRAQPGPLSQAGSAGVAALATVGVASGPGPGRPGPLQDETLGVASVPSQWRAVQGIRWETKSCQTASIATASASAQARNHVDAQVQTEAPVPVSVQPPSQYDIPRLAAFLRRVEAMVIRELNKNWQSHAFDGFEVNWTEQQQMVSCLYTLGYPPAQAQGLHVTSISWNSTGSVVACAYGRLDHGDWSTLKSFVCAWNLDRRDLRPQQPSAVVEVPSAVLCLAFHPTQPSHVAGGLYSGEVLVWDLSRLEDPLLWRTGLTDDTHTDPVSQVVWLPEPGHSHRFQVLSVATDGKVLLWQGIGVGQLQLTEGFALVMQQLPRSTKLKKHPRGETEVGATAVVFSSFDPRLFILGTEGGFPLKCSLAAGEAALTRMPSSVPLRAPAQFTFSPHGGPIYSVSCSPFHRNLFLSAGTDGHVHLYSMLQAPPLTSLQLSLKYLFAVRWSPVRPLVFAAASGKGDVQLFDLQKSSQKPTVLIKQTQDESPVYCLEFNSQQTQLLAAGDAQGTVKVWQLSTEFTEQGPREAEDLDCLAAEVAA [chain 1 A341V] | 2.2
